From patent publication US20190359951 come the findings set out here.

Common to all, as to experiment: cell_activity
Data set [1] has as its system TALE #28-LSD1 fusion (ZFPM2 +45 enhancer) (synthetic construct; LSD1 Homo sapiens). Conditions: K562; histone modification levels reduced at target; expression change not statistically significant; +45 assigned to #28 from coordinates.
For data set [2], the system named is TALE #14-LSD1 fusion (synthetic construct; LSD1 Homo sapiens). The settings on record: K562 3'DGE confirmed by RT-qPCR; #14 identified via cDNA qPCR primer set in Table 2.
Data set [3] relates to TALE #11-LSD1 fusion (ZFPM2 +16 enhancer) (synthetic construct; LSD1 Homo sapiens). Conditions: K562; histone modification levels reduced at target; expression change not statistically significant; +16 assigned to #11 from coordinates.
For data set [4], the system named is SCL enhancer TALE-LSD1 fusion (synthetic construct; LSD1 Homo sapiens). The settings on record: K562 ChIP-qPCR vs mCherry; H3K27ac reduced >4-fold; target assigned to #4 by inference.
Data set [5] concerns TALE #25-LSD1 fusion (ZFPM2 +10 enhancer) (synthetic construct; LSD1 Homo sapiens). The settings on record: K562 RT-qPCR; TALE #25 without LSD1 had no effect on ZFPM2.

For the sequence “TAAGTCTACATATAGTATCC (double strand) [TALE #28 target chr8:106,376,850]”, in data set [1], the activity (% ZFPM2 expression reduction) worked out at 22. “TAGCCGCGAGGAAGGCG (double strand) [TALE #14 target chrX:49,023,709]” gave an activity (fold nearby gene down-regulation) in data set [2] above 1.5. As for “TCCAGTCCCTGGCTCCCATG (double strand) [TALE #11 target chr8:106,347,824]”, the activity (% ZFPM2 expression reduction) in data set [3] worked out at 13. For “TCCGTGGCTGCCAGTCTG (double strand) [SCL enhancer TALE target (TALE #4, chr1:47,647,018)]”, the activity (fold H3K4me2 reduction) in data set [4] was 3. For “TTAAGCTTCTGAAGTCAG (double strand) [TALE #25 target chr8:106,341,287]”, the activity (fold ZFPM2 expression reduction) in data set [5] was found to be 2.
